# Measurements as given in patent CN110845607A (UNIV WEIFANG MEDICAL; SHANDONG KUANHEZHENG BIOMEDICINE CO …, dated 2020).
# Target: 牛血清蛋白 (BSA) (bovine, UniProt P02769 25-607)
# Assay: ELISA
# Chain of 牛血清蛋白 (BSA) (P02769 25-607 limits assumed): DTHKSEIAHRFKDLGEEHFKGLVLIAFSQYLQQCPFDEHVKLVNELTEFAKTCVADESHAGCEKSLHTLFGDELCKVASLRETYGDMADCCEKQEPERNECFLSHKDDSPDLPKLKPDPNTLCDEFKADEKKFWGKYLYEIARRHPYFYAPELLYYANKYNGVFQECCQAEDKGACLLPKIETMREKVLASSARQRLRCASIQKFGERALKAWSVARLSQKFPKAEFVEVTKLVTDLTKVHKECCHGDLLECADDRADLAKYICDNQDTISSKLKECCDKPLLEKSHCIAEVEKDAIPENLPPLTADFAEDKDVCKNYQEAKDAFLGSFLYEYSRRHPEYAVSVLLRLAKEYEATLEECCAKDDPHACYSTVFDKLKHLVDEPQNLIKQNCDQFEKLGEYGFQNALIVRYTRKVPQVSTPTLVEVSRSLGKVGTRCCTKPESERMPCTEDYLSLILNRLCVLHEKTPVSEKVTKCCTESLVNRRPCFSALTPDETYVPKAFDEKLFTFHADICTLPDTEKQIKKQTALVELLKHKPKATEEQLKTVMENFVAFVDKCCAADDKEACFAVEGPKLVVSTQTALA
binder,measurement,value
"F1 Fab片段 (purified Fab fragment of anti-H1N1 monoclonal antibody F1) (Fab, V domains shown, also called 抗体F1Fab; 单克隆抗体F1) VH: QVQLKESGDDLVKPGASVKLSCKASGYTFTNYWINWIKQRPGQGLEWIGRTAPGSGSTYYNELFKGKATLTVDTSSSTAYIQLSSLSSEDSAVYFCALSTGTGALDYWGQGTSVTVS VL: DIVMTQSPLSLPVSLGDQASISCRSSQSLVHSNGNTYLHWYLQKPGQSPKLLIYKVSNRFSGVPDRFSGSGSGTDFTLKISRVEAEDLGVYFCSQSTHVPWTFGGGTKLEIKR",binding result,no binding
